The DeepSol protein solubility set

Experiment: soluble on expression in E. coli; label from the status in PepcDB or PDB records
For “MAHHHHHHMSLPASHTTTPATASPEVLLAACTAEVQQLRDALHEVTLRERDGCSGSRGGTGGVAGGALGDVWEGKYLAMIRKNRDLTVQLGTTQQQLAAAQKALQAEQEKTQRLVAAVTVSSLGARGAKAGSKSAAGAAGVDDGCNSNSGSKSGGGSSGSEGAAAASSAAVARVYDKLHQKQLAMAEVQRENVALRSLIQREVGLRDDTKEVNRLLRRATAVSSNGGSAAAAAGGTSASGADGGGWRGRAEEIVLLKSKLKDAQREVEEMAAAQSSSENGTDACTDPLSLPASVRAFLGASGDPAAEARSVVTTTTAQVRRPRRDVDDDARDRLSAMQQQRAAQQRQLAADLAELQQQLNEERMRSSALQARTKTMKSELDTLRSYVDTILEKSSTDDELVEAYKTELQRAHEEARHWRRVAADALKEAGGGKTSAALTVSGVHNGLNNAAAAAVRTAPYRKAAGDEKAVAAGGGDAGNVRGAPLPLPPPQPLTSFSRSLYEWVCQACDEVPEGKEQERTEPAVAASAKQLAAVLRQAFQHLVLVEQHTVAGNDMGHASTDSASSESILLKENAALKTRIRALSELMEKELQAQRVLWATAAAGAGATPSTETKERERQQ”, the “soluble on expression in E. coli” value was “not soluble”. In the case of “MAHHHHHHMSLTDIEEAETVELLSEDSCSTMSASSEDVGATTVDTSLPLTANATEEQLRRRMLHECACIPELRPQPAWLEESGAAGDGPSASTTEMNWDVAHADHLVVAVRWRVAPTSPGTGCPSLHTTPWVPYAVPLAKVIASRTMAATDTASTVTSTTSSSGGGSSATVQPLGSVQLPLGRSMFLLAAQRSSLVPRAWDSGVAAESLVNVAASISRAQCTLHLHYAAAKTPQAPSSLRTRPVCRSFDVFAISPTTALLGIALQPHQRYHIKRKRGTGKSAHASEDQPCDANGVLTLRVGPYCHVDVALDELPSEPRVSGSAGTCPSITINTYNGRHAHTTRSGQTQDSPAVHRTSACRSGVAREPPAAAMQLQHGSTASLITGDSTAVLATLSEMSDHVALSETSGHEHDGPVVAGSQEVAAAPSHTSITGSLKRRRPAAARGRAAEAVVRRVGNAEAAEGGDVDEADAAVSHSVTTTPSEIVLFTTGMRLSDAEEKTLKELGALVNPHLRLARYARVLAAQRPLVRSVKLLTVLPYVQDVVHQSWLDAVLRTRSLDLPLEGFAYKERKLAGSIESENSFDLRETMRKAPTERQRLFAQQHFWVHKSATPQEPPMNDLKTVVAASGGIITRCVLDADVLVLPKHKPTLSCWRGIAQQLGGTGRASTSSASASTTPTLAQRKQAGVLFVVPDDIFKCVLQQRRLSASSVTLPWQLLTEAAAARGTTGAARVGRRPSQPTRKTPRASTTQRSPRRKSCKRSQ”, the “soluble on expression in E. coli” value is reported as “soluble”. For “MAHHHHHHMSPVLVPTACEDWSLNIDDESAKRFWWNNTYSITLWEETLNIEQQAEKITDGDVWSKFIDLQLRCAFKICSICHSPEGNADMKICCYCGNTVHENCSEPAAPEQIMWKPANLAYVEHMRACFQCQAVNYKEPL”, the “soluble on expression in E. coli” value was “not soluble”. In the case of “MAHHHHHHMSPYEYLFKYIIIGDTGVGKSCLLLQFTDKRFRADHDLTIGVEFGARLINLDNKQIKLQIWDTAGQESFRSITRSYYRGAAGALLVYDITRRETFNHLNRWLDEVRQNSNPHMAIILVGNKCDLERREVSAEEGAQFARQNGLIFLETSAKTAKNVEEAFLYTARKIYDNILEDVYDLSNESYGIKYGPNSQYSRVKLDIPSMPESRSGFSCC”, the “soluble on expression in E. coli” value is reported as “soluble”. In the case of “MAHHHHHHMSSDDECPELISARVPVTVLTGFLGSGKTTLLHYILSADHDMRIAVIVNEFEFGKTIEKGLTLKSSEKPDDEWLELNNGCMCCTAQTQTVKALESLMEHRGTFDLILVETSGLADPGPIAAMFWQDLPLCGHLYLSGIVTLVDAVNICRYLDDEDVMREAERQILMADKVVLNKCDIATEAQQKAALAAVREINPVATVIPSDHSRVPNLRDILFIDTTRAATELVHLHEHHHSSISAVSLEFFEAERAFAVSSYRDVHAIGSDLLYRCGDYGFEVVRCKAAIWCCEDGQYRLLQLQSIGDLFDVTPMVGQSVPFGCTRALVLGKQLDEVKLRDIFAKYLKATK”, the “soluble on expression in E. coli” value is reported as “not soluble”. In the case of “MAHHHHHHMSSIKINKDESKRVHIWIKSAIGTPNRRQFKHKNIMYPYFRMYKSPYRARDSRTRQAFWPCVDKYPWHTHQKRWVDIEQLNLKFFSEFTNKDPSRKNLFETCHTLPFNGINCLFWNPIYLNSHKFFLKKNKKDANRGEDNNMEENDDVKENTIEGNDDVKEHAIEGYTNNNVNNHNDIINQYDENKKVIKINDFHYIVDKDVKNNTYFYLKYIKYSMRPFRGKLIGDIYLNQTKIRHNISAKGFVNGEWKYSYPHININKKIEHISLNNNLTSNDIYSNNINNLVIVDKYTYRPPLPKSYIFQKDIL”, the “soluble on expression in E. coli” value is reported as “not soluble”.
